Values quoted from earlier work in PMC4482139.

Tests used:
[1] = molecular target: nmMLCK1 (Homo sapiens) (UniProt Q15746)
[2] = molecular target: nmMLCK2 (Homo sapiens) (UniProt Q15746)

Substance: Cortactin (from UniProt Q14247)
- Kd [1]: 1000 nM
- Kd [2]: 250 nM
